{"source": "paper PMC2965215", "target": "T1, ORF904 primase domain Y352A (Sulfolobus islandicus plasmid pRN1, UniProt Q54324 40-370, Y352A)", "T1 sequence": "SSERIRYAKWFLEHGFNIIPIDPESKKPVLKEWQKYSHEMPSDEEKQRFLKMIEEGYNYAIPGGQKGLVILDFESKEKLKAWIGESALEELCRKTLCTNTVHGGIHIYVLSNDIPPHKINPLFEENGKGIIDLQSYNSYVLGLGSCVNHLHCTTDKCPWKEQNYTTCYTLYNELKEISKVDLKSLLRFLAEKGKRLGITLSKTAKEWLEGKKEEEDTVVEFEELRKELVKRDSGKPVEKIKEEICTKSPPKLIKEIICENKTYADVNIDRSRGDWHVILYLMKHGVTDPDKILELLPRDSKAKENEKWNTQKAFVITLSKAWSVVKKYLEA", "assay": "fluorescence anisotropy", "data": [{"binder": "TCTTCTGTGCACTCTTC (ssDNA)", "note": "[templatefluo]", "values": [{"measurement": "Kd", "value": "1030 ± 80", "unit": "nM"}]}]}
